Laboratory results as given in patent publication US20240382588A1 (published 2024).

Key:
Assay in all cases: multimer staining
[1] = target: T1, Ro60 peptide on HLA-DRA*01:01 / HLA-DRB1*03:01 (human)
T1 peptide: KRFLLAVDVSASMNQ

[2] = target: T2, SmD1 (Smith protein) peptide on HLA-DRA*01:01 / HLA-DRB1*03:01 (human)
T2 peptide: TLLVDVEPKVKSKKR

[3] = target: T3, MPO (myeloperoxidase) peptide on HLA-DRA*01:01 / HLA-DRB1*04:05 (human)
T3 peptide: MVQIITYRDYLPLVL

Measured: binding result

B1: Promiscuous self-TCR (TCR, V domains shown)
Valpha: RKEVEQDPGPFNVPEGATVAFNCTYSNSASQSFFWYRQDCRKEPKLLMSVYSSGNEDGRFTAQLNRASQYISLLIRDSKLSDSATYLCVVPPGGGFKTIFGAGTRLFVKA
Vbeta: EAQVTQNPRYLITVTGKKLTVTCSQNMNHEYMSWYRQDPGLGLRQIYYSMNVEVTDKGDVPEGYKVSRKEKRNFPLILESPSPNQTSLYFCASRTRTASYGYTFGSGTRLTVV
recognises: [1] | [2] | [3]
